Assay results published in the Human Domainome abundance scans (Beltran et al. 2025).
± gives the uncertainty stated by the source.

B1: E3 ubiquitin-protein ligase NEDD4, residues 836 to 881; numbered along this chain, P46934 (parent)
chain: EIEQGFLPKGWEVRHAPNGRPFFIDHNTKTTTWEDPRLKIPAHLRG

Variants of: B1
Assay: abundance fitness (aPCA) (normalised: wild type 0, dead -1); higher = more abundant; growth selection in yeast, the domain comes from the species named
Conditions: Homo sapiens

| Variant | abundance fitness |
| --- | --- |
| N27H | -0.543 ± 0.11 |
| P36D | -0.893 ± 0.22 |
| Q4D | -0.285 ± 0.11 |
| G10H | -0.493 ± 0.13 |
| E34K | -0.369 ± 0.11 |
| V13G | -0.747 ± 0.07 |
| V13P | -0.764 ± 0.14 |
| K9P | -0.211 ± 0.066 |
| I24H | -0.523 ± 0.079 |
| G5H | -0.313 ± 0.095 |
| W11D | -0.539 ± 0.16 |
| I2Q | 0.178 ± 0.11 |
| E12V | -0.526 ± 0.052 |
| F6W | -0.063 ± 0.058 |
| E3W | -0.35 ± 0.089 |
| L44G | 0.056 ± 0.032 |
| K39E | 0.062 ± 0.058 |
| G5E | -0.141 ± 0.076 |
| H43W | -0.311 ± 0.075 |
| W33D | -0.484 ± 0.13 |
| T30K | -0.133 ± 0.073 |

| Variant | abundance fitness |
| --- | --- |
| A42Y | -0.252 ± 0.085 |
| R20I | -0.257 ± 0.051 |
| A16R | -0.668 ± 0.099 |
| F22L | -0.151 ± 0.04 |
| D35Y | -0.906 ± 0.24 |
| H26Q | -0.381 ± 0.043 |
| P17K | -0.115 ± 0.084 |
| N27T | -0.091 ± 0.048 |
| P36G | -0.927 ± 0.086 |
| K39Y | -0.319 ± 0.093 |
| A42H | -0.086 ± 0.11 |
| N27F | -0.189 ± 0.066 |
| K9S | -0.048 ± 0.04 |
| F23I | -0.896 ± 0.13 |
| W11L | -0.648 ± 0.073 |
| G19T | -1.05 ± 0.38 |
| D25Y | -0.768 ± 0.21 |
| F22V | -0.211 ± 0.048 |
| K9F | -0.825 ± 0.29 |
| F6I | 0.372 ± 0.058 |
| N27W | -0.827 ± 0.12 |

| Variant | abundance fitness |
| --- | --- |
| I40D | -0.193 ± 0.1 |
| N27L | -0.417 ± 0.053 |
| I2V | -0.334 ± 0.064 |
| Q4H | -0.172 ± 0.059 |
| G10R | -0.627 ± 0.055 |
| I2T | -0.214 ± 0.099 |
| G10V | -0.816 ± 0.1 |
| P17V | -0.191 ± 0.045 |
| R14T | -0.562 ± 0.075 |
| T30S | -0.136 ± 0.051 |
| E12C | -0.758 ± 0.063 |
| N27I | -0.105 ± 0.046 |
| H43L | -0.107 ± 0.038 |
| V13K | -0.032 ± 0.045 |
| H43I | -0.156 ± 0.04 |
| W11I | -0.459 ± 0.1 |
| N27P | -0.935 ± 0.16 |
| R14C | -0.07 ± 0.047 |
| G10D | -0.81 ± 0.11 |
| R20T | -0.207 ± 0.07 |
| D25S | -0.84 ± 0.061 |

| Variant | abundance fitness |
| --- | --- |
| E12G | -0.882 ± 0.11 |
| N18G | -0.063 ± 0.034 |
| L7G | -0.524 ± 0.048 |
| L38H | -0.292 ± 0.086 |
| I40C | -0.343 ± 0.11 |
| T28V | -0.78 ± 0.055 |
| G10E | -0.605 ± 0.11 |
| P36Y | -0.713 ± 0.12 |
| A16E | -0.387 ± 0.064 |
| I24S | -1.09 ± 0.2 |
| P36M | -1.06 ± 0.16 |
| W11G | -0.575 ± 0.037 |
| G10M | -0.854 ± 0.16 |
| P36W | -0.954 ± 0.13 |
| L7I | -0.493 ± 0.1 |
| I40T | 0.04 ± 0.072 |
| A16Y | -0.657 ± 0.2 |
| V13C | -0.252 ± 0.052 |
| K39D | -0.241 ± 0.086 |
| F23S | -0.856 ± 0.099 |
